Data taken from the DeepSol protein solubility set.

Test: soluble on expression in E. coli; label from the status in PepcDB or PDB records

Row | Sequence | soluble on expression in E. coli
1 | MSLRVTLREVAQEAGVSLKTASNVINHSGRMADATREKVQDVIDRLGYRVNVSARNLNRGKTGFITLAVPSLTAPYLAELANRVIDAARIYGYSVYITTYAEGSAQGARALLRNFNATVSDGMILSISEVEDLDPEDLDVDYPLVCVGARSTHGKADHVTPDDVQEARLAAQYLFDHGATNLAVIGSRTDPEHILELRDAVEGNAQLRMRGIFEACADQGVELDTRLVPNVGQDWTIGSGARMTQRIVDSGIPFDGIVAFNDQLALGALFTLAANGIAVPDRVQVIGFDNNEEAAYFQPPLTTMDSCLDWIAPTAVSRIINRIDGSRTLEPELITTQSRIIARATTRAEGHHHHHH | soluble
2 | MSLRVVLKLGTSVLTAGTDRLHRPRLVDLMRDIAAVSAQGHEVVLVSSGAVTAGWEALGFPPRERTLAEKQLLAAVGQVQLMHLYTSLAELYGLRSAQLLLTADDFRERTRYLNARTTLEGCLSRGVLPVINENDTVAVEQIKVGDNDTLSAFVANLVEADLLLILTDAPGLYTADPRTHPDATLIPVVERVTPDIWALAGGAGSHRGTGGMHTKIQAAEIATRAGTPVVIAPGDLPEALRRVVDGEALGTRFLAHGTRLEARKRWILAEIAHGRLLLDGGAAQAVRERGSSLLPAGIRQVEGDFERGHTVRLLAPDGQELGRGLTRYRADDLRRVCGHHSREIEALLGYTYGEEAVHRDDLVLLEGHHHHHH | soluble
3 | MSLRWQWRIYEEPLQEPLTTAQGVWRSRSGIYLRLEDEQGQVGYGEIAPLPGWGSETLNADIALCQQLPGHLTPEIMATIPEALPAAQFGFATAWQSVGRLPYRVRPWPICALLGSGQAALEQWQQSWQRGQTTFKWKVGVMSPEEEQAILKALLAALPPGAKLRLDANGSWDRATANRWFAWLDRHGNGKIEYVEQPLPPDQWQALLSLAQTVTTAIALDESVVSAAEVQRWVDRGWPGFFVIKTALFGDPDSLSLLLRRGLEPQRLVFSSALEGAIARTAIFHLLETWQPCHALGFGVDRWRSAPLLTTLTAYERLWERLDQGHHHHHH | soluble
4 | MSLRYLLGIDVGTSGTKTALFDECGNTIKTSTHEYELFQPQVGWAEQNPENWWTACVKGIREVIEKSKIDPLDIKGIGISGQMHGLVLIDKEYKVIRNSIIWCDQRTEKECTQITDTIGKEKLIRITGNPALTGFTLSKLLWVRNNEPDNYKRIYKVLLPKDYIRFKLTGVFAAEVSDASGTQMLDINTRNWSEELLDDLRIDKNILPDVYESVVVSGCVIEKASKETKLAVNTPVVGGAGDQAAGAIGNGIVREGLISTVIGTSGVVFAATDTPRFDSKGRVHTLCHAVPNKWHIMGVTQGAGLSLNWFKRTFCAKEILESKEAGINIYDLLTEKASQSKPGSNGIIYLPYLMGERTPHIDPNVKGAFLGISLINNHNDFVRSILEGVGFSLKNCLDIIENMKVNIEEIRVSGGGAESSIWRQILSDIFNYELTTVKASEGPALGVAILAGVGAGIYNSVEEACDKIVKGNEKVMPNANLIEVYSKVYEVYNSAYPKIKDEGHHHHHH | soluble
5 | MSLSANFSENISRLGLSSRSKQEKLAHLMETELTHLQASFIEAPTGLGKTYGYLLPILASGKGLVVSTATKVLQKQLVNDVAPKLGKTFGLKMAKIVGTKNYISLRKFSELLLNNTDGKNFEIFKMKILIWLTETRTGELDEVSKVMTNDDYFEVIRHDGYVNTKQLHYEQDFWLKAQKEAEQAEIKVVNHAYLIERLADYPETFLENRVLVVDEAQQLFPIMENAGQKSLKITDELIKIDAETSENPQLTKRLQESLVFQLNKKELDLNKIKIDADELGLRNLSALLEADNQIVWRENGMLYASDQDFYNFERLIPKNTKLFMLGATLSLSKDKPSFPDLLGFTDYRFFKIEGNQATNQQLLTVTDAPNIKNLSLIDYADYTANSIGELSKLNLPMVVLFTSKMALTFVAEKLSAEGFEILAQDINGSPAQIKKKFDKGEGKILLGLGSFWEGVDFDKQNQVILVIPRLPFATPDDILTKKYAQKFENPFYDFNVPMATLKLRQAIGRVNRRKNQYSSIVVLDKRLAGKSYAKRMRKNLSETLPVKMLNLLDTISEIKNFLIEGHHHHHH | not soluble
6 | MSLSASQTSDVPTLLVKIFGKDRPGITAGLFDTLAAYSVDVVDIEQVVTRGRIVLCALVTEPPRGLEGDLRATVHSWAESLKLQAEIISGIGDNRPRGFGRSLVTVLGHPLTAEATAAIAARITESGSNIDRIFRLAKYPVTAVEFAVSGVETEPLRTALATEAAALGVDIAVVAAGLHRRAQRLVVMDVDSTLIQDEVIELFAAHAGCEDEVAEVTAAAMRGELDFEQSLHARVALLAGLDASVVDKVRAEVRLTPGARTLIRTLKRLGYQVGVVSGGFTQVTDALQEQLGLDFAQANTLEIVDGRLTGRVTGEIVDRAGKARLLRRFAAAAGVPLSQTVAIGDGANDLDMLNAAGLGVAFNAKPVVREAAHTAVNVPFLDTVLYLLGITREEVEAADTLADDLGDGPGREGHHHHHH | soluble
7 | MSLSAYAELHCLSNFSFQRGASSAAELFQRAKALGYQALAITDECTLAGIVRAWQASRDTGLKLIVGSEMQVEDGPRLVLLVEDLAGYQGLCRLITRARRRAEKGSYRLLREDFAEPLPGLLALWLTGAGEPLAQGRWLQQVFPQRLWLALELHCGQDDARHLQQQLALARQLGLPAVACGDVHMHVRGRRALQDTMTAIRHHLPVAEAGQRLFANGERHLRPVEVLQGLYPQALLDESLAIAGRCAFDLGQLRYQYPRELVPEGHDAGSWLRVLTQRGIVRRWPTGARAEVLKQIDKELTLICDLGYESYFLTVHDIVDFARRQHILCQGRGSAANSVVCFALGITEIDPDRSTLLFERFLSRERNEPPDIDVDFEHERREEVLQYLFQRYGRHRAALTAVVSTYHGAGAVRDVAKALGLPPDQVNALADCCGHWSDTPPSVERLQEAGFDPQSPVLRRVLSLTGQLIGFPRHLSQHPGGFVISEQPLDHLVPVENATMAERTVIQWDKDDLDMVGLLKVDILALGMLSAIRRCFDLIHGYRGQRYSLASIPPEDPATYEMIGRADTIGVFQIESRAQMSMLPRLKPQNFYDLVIEVAIVRPGPIQGGMVHPYLRRRNRQEPETYPSPELEGVLKRTLGVPLFQEQVMQIAIVAADYTPGEADQLRRSMAAWKRHGGLEPHRERLRRGMNRNGYSDEFATQIFEQIKGFGSYGFPESHAASFALLTYASCWLKCHEPAAFACALINSWPMGFYSPDQILQDARRHGLQVLAVDVGASDWDCSLEPIPVQPARAGNGPPGQPALRLGLRMIKGFREDDARRIERARRQRAFVDIADLGERARLDVRAQELLADAGALQALAGDRYRARWEVAGVERQLGLFAEGHHHHHH | soluble
8 | MSLSDAISFRPMTEADLDAVLKIEYAAFSHPWTRGIFSEGLKNYHCWLMFEGSQQVGHGVIQIILDEAHLLNITVKPESQGRGLGLRLLEHLMREAAGHQARECFLEVRASNQAAYRLYERYGFNEIGRRRDYYPAVGGREDALVMACTLFDEGHHHHHH | soluble
9 | MSLSDFDYIQKNTPPEFPEKFKTALLPENIKKNRYSDVLANDDTRVKLNNNGYINANYIFQGRMIASQAPTIETIPDFLQMIIEQQVPIVIMLTKCKEKTRIKATPYWGYKSEGGKKVFGNYTVNTIDTLYDDVEEDKFMEDIQIRYLQIIYEDGVYSFIQIHYMGWPDFGVPLNPKDALDIVYIQYIIGTTSKFSNRNLVCVHCSAGVGRTGVYCLLSRIVEMVTYEILEKSETYSKQRSTSSSSKVREVEDRIEEILLSHPVISYEDCEVILPELVLSIRNERSKMVQTKEQYDFICETVNCFYEDALDSINQYYEVIDALTPLLQEKHSEIVQDFIKRNEEGHHHHHH | soluble
10 | MSLSDLPDDIFQIIVKKLGDEDFNHLGPIIRSNKRGRDIGLSREILKSANLMGMCLHPPNIFPGQLFRNFFVRCLEFENATAMYYEAIRLIVREENVMGSLFLLNQLVPTYDYATIAYAFFQMCAGRGDLAGTTFDTIFEQNSVSRWGSIYSFELEVKCEALIDTIMDFQPHFGMTFAPDWKFASSDCLSISECPDWHGVEYFCEGCYIYYVALRILEVL | soluble
11 | MSLSEAGYPRKVMQHAEELHERILSFDSRITVPLDFGTTGNEVDKDGPGQLDLVKAGRGRLSGAALAIFGWPEMWNGPNAPHKPTPGFVDEARHQQEIRYKILTGMVRDFPNQVGIAYSPEDFRRLAMEGKFAIVMSMLNAYPLGDDLSQLDKWAARGVRMFGFSYVGNNDWADSSRPLPFFNDSPDALGGLSPLGKQAVERLNDLGVIIDVSQMSTKALEQVAALSRAPIVASHSAPRALVDIKRNLSDHEMQLIKDSGGVIQVVGFPAYLRPLSKPTLDKLDALRARFDLPPLEGLDYALMPGDPIITIWPEQRFGEYASALYGILEEEPKAGLKELVDAIDYTVKKVGIDHVGISSDFNDGGGVDGWKDVSEIRNVTAELITRGYSDADIAKLWGGNFLRAWGEVQNAPSRQPPPKGIITITTDPNSSSVDKLAAALEHHHHHH | soluble
12 | MSLSEDLRFFEFFAGGGMARAGLGNQWQCLFANDMDRIKASTYIQNWGKDHFDSRDIREVNSEDLERNGDLAWASFPCQDLSVAGNGLGIGSSSAKDFTRSGALWPFLDLIDTLRQEERQPPLLVLENVVGLLTLEGGRDFAAICERLGEIGYRYGAVIIDAKHFLPQSRPRVFIIAVQRNIDIPCKLSRGMATANWHTPTLLRAYKSLTPILHADWVWWELGDAPILQENALESFIQREGVLWNTPEETKRIISMMAPAHLARLENAKCAGGVAVGSLYLRMRREGGINKQRAEITFSPLLGCLRTPRGGASRPRIIVVESGHVRTRLLTICEAARLMGLANTYILPEIYHHAFKVIGDGVAVPAVRFLAERLLEPLAIAARGQIAIPHEKAFMAEGHHHHHH | soluble
13 | MSLSENTTKVVQLNSHLTAPGQVTDELQSLTRMPAAFVETKDKGKQALRPLLQALFDNIDDALFELADRAEHNAEQNMFFESMREVRIKRRGMELCFGQELDNRFRLLLTDDAPRAKSSADDPRLAVDSLSLIANEELEELVAADTMIIKAEGEFTDSLSQLTTRIDTLVHPLEVTDKTNPFGPTSVCQSFVGVCKTLDMDIRAKLVLFKLFDRYVMNGLGDVYAACNEVLVNNGILPGLAKGRTTAARADSNIQQPPAASGTVDVFAQLQTLLHGLPQHTAGIETSGLVAVGQAPQIPRDTLMTLLQSVQLSLAPQLDQQLQAALQGVGPQQLDIQQSLSNLLSAKLPSKPMSIGQVESDALNLVAMLFQFILDDRNLAAPMKALIARLQIPFIKAAMIDSSFFTKGGHPARRLLNEIASASLGWVAIGIVDRDPLYAKVSSIVTRIQREFDGDSRLFQDVLTDFVAFLDMDKRRIGLVEQRTINAEDGKAKSEQARTAVQTALNERVAGLSLPKVVISLLEQAWSNVLFLIYLKEGDQAENWQEGLNVVDDLLWSVQPMDSADSRHRLVTMVPPLLKNVRAGLTKIGYNPFEMNQLFTDLEVVHLSQLQALNTVKLDMTASEGHHHHHH | not soluble
14 | MSLSEVLDLDGELNLLVWNIYKQNRANWSTQLTELSRDQQLLLLQEANMTPAFKEWIHQLGWDGTQARAFEAFGETAGVINLAKVMPTMACAYTQLEPWLRLPKSAIYARYRLSDGQELVVVNLHAVNFTYGTQEYQQQLIALLDELRDFTGPVIVAGDFNSWSEARMALLSTQLASVGLQEVRFSPDNRTTFINGLPLDHVFYRGLQLEKAEAPISDASDHNPLLVRFRLLNEGHHHHHH | soluble
15 | MSLSGKLTYKELIIEVLKQTKKPLNVSEIWQKALEKGLDKKLSSIGQTPTQTIWNRLLTDKINFLKTSIKPTTFWLKERENELLKLDNKNEITNEKQEKNKFHERDLHPLLVKFLYENLDFNLNCKTIYHEQSKKGKGGEDKWNYPDIVGVYFPYDDYEKETITLLENIKQNSYKLFSFELKIALNFSNLKECYFQAVSNSSWANEGYLVVLQEIDSEVLSELRRLNQSFGIGVIKLEKDISNSQILISAKEKELDIQTLNMLINKNPNFKEFIDDINKQIKVGKEAKIQANFDEIKSDEEMEKYLKEKCILEKEGHHHHHH | soluble
